T1: FcγRIIb extracellular domain with C-terminal His tag (human, UniProt P31994 43-217)
T1 construct: extracellular domain; Expressed in FreeStyle293 cells; analyte in the SPR assay; also called FcgRIIb; 2b
T1 sequence (looked up): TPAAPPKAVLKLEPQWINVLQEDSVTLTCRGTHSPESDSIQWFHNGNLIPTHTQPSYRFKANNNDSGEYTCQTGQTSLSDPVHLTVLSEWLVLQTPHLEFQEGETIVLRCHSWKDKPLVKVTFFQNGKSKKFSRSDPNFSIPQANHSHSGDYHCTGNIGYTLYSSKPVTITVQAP

T2: FcγRIIb, extracellular domain with C-terminal His tag (human, UniProt P31994 43-217)
T2 construct: extracellular domain; made in FreeStyle293 cells; analyte in the Biacore assay; also called 2b; FcgRIIb
T2 sequence (looked up): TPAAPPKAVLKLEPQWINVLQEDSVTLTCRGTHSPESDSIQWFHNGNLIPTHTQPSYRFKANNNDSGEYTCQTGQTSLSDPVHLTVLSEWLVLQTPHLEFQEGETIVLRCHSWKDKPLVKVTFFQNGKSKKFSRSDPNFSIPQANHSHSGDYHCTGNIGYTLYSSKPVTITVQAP

T3: FcγRIIa R (FcγRIIa allotype with Arg at position 131), extracellular domain with C-terminal His tag (human, UniProt P12318 34-217)
T3 construct: extracellular domain; made in FreeStyle293 cells; analyte in the Biacore assay; also called FcγRIIa type R; 2aR
T3 sequence (looked up): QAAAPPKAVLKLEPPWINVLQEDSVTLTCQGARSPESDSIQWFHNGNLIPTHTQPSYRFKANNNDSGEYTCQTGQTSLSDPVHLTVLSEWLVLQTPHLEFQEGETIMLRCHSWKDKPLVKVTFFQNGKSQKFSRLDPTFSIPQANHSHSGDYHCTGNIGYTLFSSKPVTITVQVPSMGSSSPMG


Assays:
[1] = target: T4, FcγRIa extracellular domain with C-terminal His tag (human, UniProt P12314 16-292); experiment: SPR (Biacore), relative binding, HeCon Ab = 100
T4 construct: extracellular domain; Expressed in FreeStyle293 cells; analyte in the SPR assay; also called FcgRI; 1a
T4 sequence (P12314 16-292): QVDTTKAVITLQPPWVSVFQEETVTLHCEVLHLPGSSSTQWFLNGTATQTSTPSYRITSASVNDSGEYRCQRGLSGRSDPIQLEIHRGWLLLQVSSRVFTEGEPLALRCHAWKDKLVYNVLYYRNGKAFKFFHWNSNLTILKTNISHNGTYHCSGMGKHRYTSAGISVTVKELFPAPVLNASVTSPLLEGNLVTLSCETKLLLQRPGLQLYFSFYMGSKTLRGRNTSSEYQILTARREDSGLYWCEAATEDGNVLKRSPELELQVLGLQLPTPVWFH

[2] = target: T1, FcγRIIb extracellular domain with …; experiment: SPR (Biacore), relative binding, HeCon Ab = 100
[3] = target: T4, FcγRIa extracellular domain with …; experiment: SPR (Biacore); He/Con_1a divided by He/Con_2b (FcγRIa against FcγRIIb)
[4] = target: T2, FcγRIIb, extracellular domain with …; experiment: SPR (Biacore), antibody captured, FcγR analyte; vs GpH7-A5/GpH7-B3/GpL16-k0 = 100
[5] = target: T3, FcγRIIa R (FcγRIIa allotype with Arg at …); experiment: as above
[6] = target: T3, FcγRIIa R (FcγRIIa allotype with Arg at …); experiment: SPR (Biacore); He/Con_2aR divided by He/Con_2b, binding to FcγRIIa R against binding to FcγRIIb
Method: The heterodimerized antibodies He Abs in which one of the H chains was introduced with an alteration were assayed for their binding activities to each activating FcγR and inhibitory FcγR according to the method described in Example 4. […] The activating FcγRs in FIGS. 26, 27, 28, and 29 are FcγRIa, FcγRIIa (R), FcγRIIa (H), and FcγRIIIa, respectively.
Analysis of interaction between objective antibody and the FcγR was carried out using Biacore T100 (GE Healthcare). HBS-EP+ (GE Healthcare) was used as the running buffer, and the measurement temperature was set to 25° C. Chips produced by immobilizing the antigen peptide by the amine coupling method to a Series S Sencor Chip CM5 (GE Healthcare), or alternatively, chips produced by allowing preliminarily biotinylated antigen peptides to interact with and immobilize onto a Series S Sensor Chip SA (certified) (GE Healthcare) were used. Antibodies of interest were captured onto an antigen peptide-immobilized chip, and allowed to interact to each FcγR diluted with running buffer. To regenerate and repeatedly use the chip, the antibodies captured on the chip were washed off by reacting 10 mM glycine-HCl, pH 1.5.

Row | He/Con_1a [1] | He/Con_2b [2] | He_1a/2b (Ia/IIb) [3] [ratio] | He/Con_2b [4] | He/Con_2aR [5] | He_2aR/2b (IIaR/IIb) [6] [ratio] | Binder
1 | 90.5 % of HeCon Ab (=100) | 48.2 % of HeCon Ab (=100) | 1.88 | – | – | – | GpH7-A5/GpH7-B3 variant L235_13S/GpL16-k0 (He Ab) (antibody, human IgG1, kappa, He Ab: mutation in one H chain only) heavy 1: not shown heavy 2: not shown light: DIVMTQSPLSLPVTPGEPASISCQASESLVHSNRNTYLHWYLQKPGQSPQLLIYKVSNRFSGVPDRFSGSGSGTDFTLKISRVEAEDVGVYYCSQNTHVPPTFGQGTKVEIERTVAAPSVFIFPPSDEQLKSGTASVVCLLNNFYPREAKVQWKVDNALQSGNSQESVTEQDSKDSTYSLSSTLTLSKADYEKHKVYACEVTHQGLSSPVTKSFNRGEC
2 | 88.7 % of HeCon Ab (=100) | 46.8 % of HeCon Ab (=100) | 1.9 | – | – | – | GpH7-A5/GpH7-B3 variant L235_14T/GpL16-k0 (He Ab) (antibody, human IgG1, kappa, He Ab: mutation in one H chain only) heavy 1: not shown heavy 2: not shown light: DIVMTQSPLSLPVTPGEPASISCQASESLVHSNRNTYLHWYLQKPGQSPQLLIYKVSNRFSGVPDRFSGSGSGTDFTLKISRVEAEDVGVYYCSQNTHVPPTFGQGTKVEIERTVAAPSVFIFPPSDEQLKSGTASVVCLLNNFYPREAKVQWKVDNALQSGNSQESVTEQDSKDSTYSLSSTLTLSKADYEKHKVYACEVTHQGLSSPVTKSFNRGEC
3 | 94 % of HeCon Ab (=100) | 42.6 % of HeCon Ab (=100) | 2.21 | – | – | – | GpH7-A5/GpH7-B3 variant L235_19Q/GpL16-k0 (He Ab) (antibody, human IgG1, kappa, He Ab: mutation in one H chain only) heavy 1: not shown heavy 2: not shown light: DIVMTQSPLSLPVTPGEPASISCQASESLVHSNRNTYLHWYLQKPGQSPQLLIYKVSNRFSGVPDRFSGSGSGTDFTLKISRVEAEDVGVYYCSQNTHVPPTFGQGTKVEIERTVAAPSVFIFPPSDEQLKSGTASVVCLLNNFYPREAKVQWKVDNALQSGNSQESVTEQDSKDSTYSLSSTLTLSKADYEKHKVYACEVTHQGLSSPVTKSFNRGEC

The remaining lines, values behind:

Row | Binder | He/Con_1a [1] | He/Con_2b [2] | He_1a/2b (Ia/IIb) [3] [ratio] | He/Con_2b [4] | He/Con_2aR [5] | He_2aR/2b (IIaR/IIb) [6] [ratio]
4 | GpH7-A5/GpH7-B3 variant L234_19Q/GpL16-k0 (He Ab) (antibody, human IgG1, kappa, He Ab: mutation in one H chain only) heavy 1: not shown heavy 2: not shown light: DIVMTQSPLSLPVTPGEPASISCQASESLVHSNRNTYLHWYLQKPGQSPQLLIYKVSNRFSGVPDRFSGSGSGTDFTLKISRVEAEDVGVYYCSQNTHVPPTFGQGTKVEIERTVAAPSVFIFPPSDEQLKSGTASVVCLLNNFYPREAKVQWKVDNALQSGNSQESVTEQDSKDSTYSLSSTLTLSKADYEKHKVYACEVTHQGLSSPVTKSFNRGEC | 95.7 % of HeCon Ab (=100) | 60.3 % of HeCon Ab (=100) | 1.59 | – | – | –
5 | GpH7-A5/GpH7-B3 variant G236_02A/GpL16-k0 (antibody, human IgG1, kappa, heterodimerized IgG1, mutation in one H chain only; also called He Ab) heavy 1: not shown heavy 2: not shown light: DIVMTQSPLSLPVTPGEPASISCQASESLVHSNRNTYLHWYLQKPGQSPQLLIYKVSNRFSGVPDRFSGSGSGTDFTLKISRVEAEDVGVYYCSQNTHVPPTFGQGTKVEIERTVAAPSVFIFPPSDEQLKSGTASVVCLLNNFYPREAKVQWKVDNALQSGNSQESVTEQDSKDSTYSLSSTLTLSKADYEKHKVYACEVTHQGLSSPVTKSFNRGEC | – | – | – | 96.5 relative (HeCon Ab = 100) | 146 relative (HeCon Ab = 100) | 1.51
6 | GpH7-A5/GpH7-B3 variant L235_03V/GpL16-k0 (He Ab) (antibody, human IgG1, kappa, He Ab: mutation in one H chain only) heavy 1: not shown heavy 2: not shown light: DIVMTQSPLSLPVTPGEPASISCQASESLVHSNRNTYLHWYLQKPGQSPQLLIYKVSNRFSGVPDRFSGSGSGTDFTLKISRVEAEDVGVYYCSQNTHVPPTFGQGTKVEIERTVAAPSVFIFPPSDEQLKSGTASVVCLLNNFYPREAKVQWKVDNALQSGNSQESVTEQDSKDSTYSLSSTLTLSKADYEKHKVYACEVTHQGLSSPVTKSFNRGEC | 94.7 % of HeCon Ab (=100) | 66.4 % of HeCon Ab (=100) | 1.43 | – | – | –
7 | GpH7-A5/GpH7-B3 variant L235_06M/GpL16-k0 (He Ab) (antibody, human IgG1, kappa, He Ab: mutation in one H chain only) heavy 1: not shown heavy 2: not shown light: DIVMTQSPLSLPVTPGEPASISCQASESLVHSNRNTYLHWYLQKPGQSPQLLIYKVSNRFSGVPDRFSGSGSGTDFTLKISRVEAEDVGVYYCSQNTHVPPTFGQGTKVEIERTVAAPSVFIFPPSDEQLKSGTASVVCLLNNFYPREAKVQWKVDNALQSGNSQESVTEQDSKDSTYSLSSTLTLSKADYEKHKVYACEVTHQGLSSPVTKSFNRGEC | 98 % of HeCon Ab (=100) | 81 % of HeCon Ab (=100) | 1.21 | – | – | –

From patent publication US20150344570A1 (published 2015)
